Test results as given in patent US20220251595A1, “ENGINEERED ATRLP23 PATTERN RECOGNITION RECEPTORS AND METHODS OF USE” (priority 2019, published 2022).

B1: AtRLP23-AtBAK1-3×FLAG: AtRLP23 apoplastic and eJM domains, AtBAK1 TM and cytoplasmic domains, 3×FLAG; SEQ ID NO: 25, 26 (protein)
chain: MSKALLHLHFLSLFLLCCVCHSSIFTLNFHFTGIVACRPHQIQAFTKFTNEFDTRGCNNSDTFNGVWCDNSTGAVAVLQLRKCLSGTLKSNSSLFGFHQLRYVDLQNNNLTSSSLPSGFGNLKRLEGLFLSSNGFLGQVPSSFSNLTMLAQLDLSYNKLTGSFPLVRGLRKLIVLDLSYNHFSGTLNPNSSLFELHQLRYLNLAFNNFSSSLPSKFGNLHRLENLILSSNGFSGQVPSTISNLTRLTKLYLDQNKLTSSFPLVQNLTNLYELDLSYNKFFGVIPSSLLTLPFLAHLALRENNLAGSVEVSNSSTSSRLEIMYLGSNHFEGQILEPISKLINLKHLDLSFLNTSYPIDLKLFSSLKSLRSLDLSGNSISSASLSSDSYIPLTLEMLTLRHCDINEFPNILKTLKELVYIDISNNRMKGKIPEWLWSLPLLQSVTLGNNYFTGFQGSAEILVNSSVLLLYLDSNNFEGALPDLPLSIKGFGVASNSFTSEIPLSICNRSSLAAIDLSYNNFTGPIPPCLRNLELVYLRNNNLEGSIPDALCDGASLRTLDVSHNRLTGKLPRSFVNCSSLKFLSVINNRIEDTFPFWLKALPNLQVLTLRSNRFYGPISPPHQGPLGFPELRIFEISDNKFTGSLPPNYFVNWKASSRTMNQDGGLYMVYEEKLFDEGGYGYTDALDLQYKGLHMEQAKALTSYAAIDFSGNRLEGQIPESIGLLKALIAVNISNNAFTGHIPLSMANLENLESLDMSRNQLSGTIPNGLGSISFLAYINVSHNQLTGEIPQGTQITGQSKSSFEGNAGLCGLPLKESCFGTGAPPMYHQKQEDKEEEEEEEEEEEEVLNGRITGAIAGGVAAGAALLFAVPAIALAWWRRKKPQDHFFDVPAEEDPEVHLGQLKRFSLRELQVASDNFSNKNILGRGGFGKVYKGRLADGTLVAVKRLKEERTQGGELQFQTEVEMISMAVHRNLLRLRGFCMTPTERLLVYPYMANGSVASCLRERPESQPPLDWPKRQRIALGSARGLAYLHDHCDPKIIHRDVKAANILLDEEFEAVVGDFGLAKLMDYKDTHVTTAVRGTIGHIAPEYLSTGKSSEKTDVFGYGVMLLELITGQRAFDLARLANDDDVMLLDWVKGLLKEKKLEALVDVDLQGNYKDEEVEQLIQVALLCTQSSPMERPKMSEVVRMLEGDGLAERWEEWQKEEMFRQDFNYPTHHPAVSGWIIGDSTSQIENEYPSGPRSDYKDHDGDYKDHDLDAAAADYKDDDDK
modifications: Fusion protein
B2: AtRLP23-3×FLAG: AtRLP23 (amino acids 1-890) linked to the 3×FLAG peptide; SEQ ID NO: 13 (nucleotide), 14 (protein) (protein)
chain: MSKALLHLHFLSLFLLCCVCHSSIFTLNFHFTGIVACRPHQIQAFTKFTNEFDTRGCNNSDTFNGVWCDNSTGAVAVLQLRKCLSGTLKSNSSLFGFHQLRYVDLQNNNLTSSSLPSGFGNLKRLEGLFLSSNGFLGQVPSSFSNLTMLAQLDLSYNKLTGSFPLVRGLRKLIVLDLSYNHFSGTLNPNSSLFELHQLRYLNLAFNNFSSSLPSKFGNLHRLENLILSSNGFSGQVPSTISNLTRLTKLYLDQNKLTSSFPLVQNLTNLYELDLSYNKFFGVIPSSLLTLPFLAHLALRENNLAGSVEVSNSSTSSRLEIMYLGSNHFEGQILEPISKLINLKHLDLSFLNTSYPIDLKLFSSLKSLRSLDLSGNSISSASLSSDSYIPLTLEMLTLRHCDINEFPNILKTLKELVYIDISNNRMKGKIPEWLWSLPLLQSVTLGNNYFTGFQGSAEILVNSSVLLLYLDSNNFEGALPDLPLSIKGFGVASNSFTSEIPLSICNRSSLAAIDLSYNNFTGPIPPCLRNLELVYLRNNNLEGSIPDALCDGASLRTLDVSHNRLTGKLPRSFVNCSSLKFLSVINNRIEDTFPFWLKALPNLQVLTLRSNRFYGPISPPHQGPLGFPELRIFEISDNKFTGSLPPNYFVNWKASSRTMNQDGGLYMVYEEKLFDEGGYGYTDALDLQYKGLHMEQAKALTSYAAIDFSGNRLEGQIPESIGLLKALIAVNISNNAFTGHIPLSMANLENLESLDMSRNQLSGTIPNGLGSISFLAYINVSHNQLTGEIPQGTQITGQSKSSFEGNAGLCGLPLKESCFGTGAPPMYHQKQEDKEEEEEEEEEEEEVLNGRAVAIGYGSGLLLGLAIAQVIASYKPEWLVKIIGLNKRRKRSDYKDHDGDYKDHDLDAAAADYKDDDDK
modifications: Fusion protein
B3: AtRLP23-eJM(EEEE/ADQ−)-3×FLAG (protein)
chain: SIFTLNFHFTGIVACRPHQIQAFTKFTNEFDTRGCNNSDTFNGVWCDNSTGAVAVLQLRKCLSGTLKSNSSLFGFHQLRYVDLQNNNLTSSSLPSGFGNLKRLEGLFLSSNGFLGQVPSSFSNLTMLAQLDLSYNKLTGSFPLVRGLRKLIVLDLSYNHFSGTLNPNSSLFELHQLRYLNLAFNNFSSSLPSKFGNLHRLENLILSSNGFSGQVPSTISNLTRLTKLYLDQNKLTSSFPLVQNLTNLYELDLSYNKFFGVIPSSLLTLPFLAHLALRENNLAGSVEVSNSSTSSRLEIMYLGSNHFEGQILEPISKLINLKHLDLSFLNTSYPIDLKLFSSLKSLRSLDLSGNSISSASLSSDSYIPLTLEMLTLRHCDINEFPNILKTLKELVYIDISNNRMKGKIPEWLWSLPLLQSVTLGNNYFTGFQGSAEILVNSSVLLLYLDSNNFEGALPDLPLSIKGFGVASNSFTSEIPLSICNRSSLAAIDLSYNNFTGPIPPCLRNLELVYLRNNNLEGSIPDALCDGASLRTLDVSHNRLTGKLPRSFVNCSSLKFLSVINNRIEDTFPFWLKALPNLQVLTLRSNRFYGPISPPHQGPLGFPELRIFEISDNKFTGSLPPNYFVNWKASSRTMNQDGGLYMVYEEKLFDEGGYGYTDALDLQYKGLHMEQAKALTSYAAIDFSGNRLEGQIPESIGLLKALIAVNISNNAFTGHIPLSMANLENLESLDMSRNQLSGTIPNGLGSISFLAYINVSHNQLTGEIPQGTQITGQSKSSFEGNAGLCGLPLKESCFGTGAPPMYHQKQEDKEEEEAEEDEQEVLNGRAVAIGYGSGLLLGLAIAQVIASYKPEWLVKIIGLNKRRKRSDYKDHDGDYKDHDLDAAAADYKDDDDK
B4: AtRLP23-eJMAtRLP1-3×FLAG: AtRLP23 with the AtRLP1 eJM domain, 3×FLAG; SEQ ID NO: 49, 50 (protein)
chain: MSKALLHLHFLSLFLLCCVCHSSIFTLNFHFTGIVACRPHQIQAFTKFTNEFDTRGCNNSDTFNGVWCDNSTGAVAVLQLRKCLSGTLKSNSSLFGFHQLRYVDLQNNNLTSSSLPSGFGNLKRLEGLFLSSNGFLGQVPSSFSNLTMLAQLDLSYNKLTGSFPLVRGLRKLIVLDLSYNHFSGTLNPNSSLFELHQLRYLNLAFNNFSSSLPSKFGNLHRLENLILSSNGFSGQVPSTISNLTRLTKLYLDQNKLTSSFPLVQNLTNLYELDLSYNKFFGVIPSSLLTLPFLAHLALRENNLAGSVEVSNSSTSSRLEIMYLGSNHFEGQILEPISKLINLKHLDLSFLNTSYPIDLKLFSSLKSLRSLDLSGNSISSASLSSDSYIPLTLEMLTLRHCDINEFPNILKTLKELVYIDISNNRMKGKIPEWLWSLPLLQSVTLGNNYFTGFQGSAEILVNSSVLLLYLDSNNFEGALPDLPLSIKGFGVASNSFTSEIPLSICNRSSLAAIDLSYNNFTGPIPPCLRNLELVYLRNNNLEGSIPDALCDGASLRTLDVSHNRLTGKLPRSFVNCSSLKFLSVINNRIEDTFPFWLKALPNLQVLTLRSNRFYGPISPPHQGPLGFPELRIFEISDNKFTGSLPPNYFVNWKASSRTMNQDGGLYMVYEEKLFDEGGYGYTDALDLQYKGLHMEQAKALTSYAAIDFSGNRLEGQIPESIGLLKALIAVNISNNAFTGHIPLSMANLENLESLDMSRNQLSGTIPNGLGSISFLAYINVSHNQLTGEIPQGTQITGQSKSSFEGNAGLCGLPLKESCFGTGAPPMYHQKQEDTHAKEEENEEEGNVIDAVAIGYGSGLLLGLAIAQVIASYKPEWLVKIIGLNKRRKRSDYKDHDGDYKDHDLDAAAADYKDDDDK
modifications: Fusion protein
B5: AtRLP23-eJMVe1-3×FLAG: AtRLP23 with the SlVe1 eJM domain, 3×FLAG; SEQ ID NO: 53, 54 (protein)
chain: MSKALLHLHFLSLFLLCCVCHSSIFTLNFHFTGIVACRPHQIQAFTKFTNEFDTRGCNNSDTFNGVWCDNSTGAVAVLQLRKCLSGTLKSNSSLFGFHQLRYVDLQNNNLTSSSLPSGFGNLKRLEGLFLSSNGFLGQVPSSFSNLTMLAQLDLSYNKLTGSFPLVRGLRKLIVLDLSYNHFSGTLNPNSSLFELHQLRYLNLAFNNFSSSLPSKFGNLHRLENLILSSNGFSGQVPSTISNLTRLTKLYLDQNKLTSSFPLVQNLTNLYELDLSYNKFFGVIPSSLLTLPFLAHLALRENNLAGSVEVSNSSTSSRLEIMYLGSNHFEGQILEPISKLINLKHLDLSFLNTSYPIDLKLFSSLKSLRSLDLSGNSISSASLSSDSYIPLTLEMLTLRHCDINEFPNILKTLKELVYIDISNNRMKGKIPEWLWSLPLLQSVTLGNNYFTGFQGSAEILVNSSVLLLYLDSNNFEGALPDLPLSIKGFGVASNSFTSEIPLSICNRSSLAAIDLSYNNFTGPIPPCLRNLELVYLRNNNLEGSIPDALCDGASLRTLDVSHNRLTGKLPRSFVNCSSLKFLSVINNRIEDTFPFWLKALPNLQVLTLRSNRFYGPISPPHQGPLGFPELRIFEISDNKFTGSLPPNYFVNWKASSRTMNQDGGLYMVYEEKLFDEGGYGYTDALDLQYKGLHMEQAKALTSYAAIDFSGNRLEGQIPESIGLLKALIAVNISNNAFTGHIPLSMANLENLESLDMSRNQLSGTIPNGLGSISFLAYINVSHNQLTGEIPQGTQITGQSKSSFEGNAGLCGLPLKESCFGTGAPPMYHQKQEDESLPPPTPLPDSDDEWEAVAIGYGSGLLLGLAIAQVIASYKPEWLVKIIGLNKRRKRSDYKDHDGDYKDHDLDAAAADYKDDDDK
modifications: Fusion protein

Tested on: corn protoplasts
Test: Calcium burst in transiently transfected corn protoplasts, R-GECO1.2 fluorescence reporter
Format: cell-based, Zea mays
Details: 1 μM PpNLP20; for Ca^2+ increase in response to PpNLP20 treatment (R-GECO1.2 fluorescence): transient expression in corn protoplasts
Text: Following ligand (also known as elicitor) binding, PRRs are activated and induce a transient increase of cytosolic Ca^2+ concentration as part of a PTI response. […] In a high-throughput method, the kinetics of PRR-dependent transient variation of cytosolic Ca^2+ concentration can be measured with a fluorimeter or luminometer and in microplate formats of 96 or 384 wells.
Fluorescence was monitored using a fluorimeter equipped with a 100 Hz xenon flash lamp with excitation at 556 nm and emission measured at 585 nm for 100 ms, every 22.6 seconds for 42 minutes.
All of the AtRLP23 constructs have an operably linked 2×35S+Ω promoter construct (SEQ ID NO: 72) and an operably linked rbcS terminator (SEQ ID NO: 73)
Fluorescence was monitored using a fluorimeter equipped with a 100 Hz xenon flash lamp with excitation at 556 nm and emission measured at 585 nm for 30 ms, every 20.2 seconds for 40 minutes. For each fluorescence measurement, the transient change in R-GECO1.2 fluorescence (ΔF) are calculated from background corrected intensity values as (F-Fo), where F represents the average fluorescence intensity of the a batch of protoplasts treated with elicitor, and Fo represents the average fluorescence intensity of the same batch of protoplasts treated with a control solution that lacks the elicitor but is otherwise identical or essentially identical in composition to the solution comprising the elicitor.

Molecule	responsiveness to PpNLP20 treatment compared to AtRLP23-3×FLAG (total transient increase of fluorescence) (Example 3, FIG. 4, 40 minutes, 384-well)	Ca^2+ increase in response to PpNLP20 treatment (R-GECO1.2 fluorescence)
B1	reduced responsiveness	–
B2	–	significant Ca^2+ increase
B3	–	Ca^2+ increase
B4	–	Ca^2+ increase
B5	–	Ca^2+ increase
